The text below walks through data of patent US20140087995A1 (published 2014).

Sequences and labels used below:
T1: human calcitonin receptor (human, UniProt P30988 25-474)
T1 construct: whole, on cells; Membranes of BHK cells stably transfected with the human calcitonin receptor (Assay VII); also called hCTR; hCT
T1 sequence (looked up): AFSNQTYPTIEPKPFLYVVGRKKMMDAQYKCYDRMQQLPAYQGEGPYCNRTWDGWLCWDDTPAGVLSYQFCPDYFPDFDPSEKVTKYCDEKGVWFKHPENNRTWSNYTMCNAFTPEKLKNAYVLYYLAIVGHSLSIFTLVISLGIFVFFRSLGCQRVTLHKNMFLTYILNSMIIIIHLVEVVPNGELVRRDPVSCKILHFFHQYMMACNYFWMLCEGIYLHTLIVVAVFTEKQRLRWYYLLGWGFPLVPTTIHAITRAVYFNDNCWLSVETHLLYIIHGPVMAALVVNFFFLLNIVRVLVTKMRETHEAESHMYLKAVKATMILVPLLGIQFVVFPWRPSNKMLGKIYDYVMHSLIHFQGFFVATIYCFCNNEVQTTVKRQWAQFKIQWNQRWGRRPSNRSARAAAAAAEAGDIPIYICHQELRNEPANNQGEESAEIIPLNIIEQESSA

B1: N^ε1-[(4S)-4-carboxy-4-(19-carboxynonadecanoylamino)butanoyl]-[Glu14,Arg17,Pro21,Pro27,Pro34,Pro37]-h-amylin (peptide)
peptide: K([γGlu-C20 diacid])CNTATCATQRLAEFLRHSSPNFGAIPSSTNVGPNTP-NH2
modifications: disulfide 2-7; N-terminus assumed
SMILES: CC[C@H](C)[C@H](NC(=O)[C@H](C)NC(=O)CNC(=O)[C@H](Cc1ccccc1)NC(=O)[C@H](CC(N)=O)NC(=O)[C@@H]1CCCN1C(=O)[C@H](CO)NC(=O)[C@H](CO)NC(=O)[C@H](Cc1c[nH]cn1)NC(=O)[C@H](CCCNC(=N)N)NC(=O)[C@H](CC(C)C)NC(=O)[C@H](Cc1ccccc1)NC(=O)[C@H](CCC(=O)O)NC(=O)[C@H](C)NC(=O)[C@H](CC(C)C)NC(=O)[C@H](CCCNC(=N)N)NC(=O)[C@H](CCC(N)=O)NC(=O)[C@@H](NC(=O)[C@H](C)NC(=O)[C@@H]1CSSC[C@H](NC(=O)[C@@H](N)CCCCNC(=O)CC[C@H](NC(=O)CCCCCCCCCCCCCCCCCCC(=O)O)C(=O)O)C(=O)N[C@@H](CC(N)=O)C(=O)N[C@@H]([C@@H](C)O)C(=O)N[C@@H](C)C(=O)N[C@@H]([C@@H](C)O)C(=O)N1)[C@@H](C)O)C(=O)N1CCC[C@H]1C(=O)N[C@@H](CO)C(=O)N[C@@H](CO)C(=O)N[C@H](C(=O)N[C@@H](CC(N)=O)C(=O)N[C@H](C(=O)NCC(=O)N1CCC[C@H]1C(=O)N[C@@H](CC(N)=O)C(=O)N[C@H](C(=O)N1CCC[C@H]1C(N)=O)[C@@H](C)O)C(C)C)[C@@H](C)O
B2: N^ε1-[(4S)-4-carboxy-4-[[(4S)-4-carboxy-4-(19-carboxynonadecanoylamino)butanoyl]amino]butanoyl]-[Arg17,Pro21,Pro27,Pro31,Pro34,Arg35]-h-amylin (peptide)
peptide: K([γGlu-γGlu-C20 diacid])CNTATCATQRLANFLRHSSPNFGAIPSSTPVGPRTY-NH2
modifications: disulfide 2-7; N-terminus assumed
SMILES: CC[C@H](C)[C@H](NC(=O)[C@H](C)NC(=O)CNC(=O)[C@H](Cc1ccccc1)NC(=O)[C@H](CC(N)=O)NC(=O)[C@@H]1CCCN1C(=O)[C@H](CO)NC(=O)[C@H](CO)NC(=O)[C@H](Cc1c[nH]cn1)NC(=O)[C@H](CCCNC(=N)N)NC(=O)[C@H](CC(C)C)NC(=O)[C@H](Cc1ccccc1)NC(=O)[C@H](CC(N)=O)NC(=O)[C@H](C)NC(=O)[C@H](CC(C)C)NC(=O)[C@H](CCCNC(=N)N)NC(=O)[C@H](CCC(N)=O)NC(=O)[C@@H](NC(=O)[C@H](C)NC(=O)[C@@H]1CSSC[C@H](NC(=O)[C@@H](N)CCCCNC(=O)CC[C@H](NC(=O)CC[C@H](NC(=O)CCCCCCCCCCCCCCCCCCC(=O)O)C(=O)O)C(=O)O)C(=O)N[C@@H](CC(N)=O)C(=O)N[C@@H]([C@@H](C)O)C(=O)N[C@@H](C)C(=O)N[C@@H]([C@@H](C)O)C(=O)N1)[C@@H](C)O)C(=O)N1CCC[C@H]1C(=O)N[C@@H](CO)C(=O)N[C@@H](CO)C(=O)N[C@H](C(=O)N1CCC[C@H]1C(=O)N[C@H](C(=O)NCC(=O)N1CCC[C@H]1C(=O)N[C@@H](CCCNC(=N)N)C(=O)N[C@H](C(=O)N[C@@H](Cc1ccc(O)cc1)C(N)=O)[C@@H](C)O)C(C)C)[C@@H](C)O
B3: N^ε1-[(4S)-4-carboxy-4-(19-carboxynonadecanoylamino)butanoyl]-[His14,Arg17,Pro21,Pro27,Pro34,Pro37]-h-amylin (peptide)
peptide: K([γGlu-C20 diacid])CNTATCATQRLAHFLRHSSPNFGAIPSSTNVGPNTP-NH2
modifications: disulfide 2-7; N-terminus assumed
SMILES: CC[C@H](C)[C@H](NC(=O)[C@H](C)NC(=O)CNC(=O)[C@H](Cc1ccccc1)NC(=O)[C@H](CC(N)=O)NC(=O)[C@@H]1CCCN1C(=O)[C@H](CO)NC(=O)[C@H](CO)NC(=O)[C@H](Cc1c[nH]cn1)NC(=O)[C@H](CCCNC(=N)N)NC(=O)[C@H](CC(C)C)NC(=O)[C@H](Cc1ccccc1)NC(=O)[C@H](Cc1c[nH]cn1)NC(=O)[C@H](C)NC(=O)[C@H](CC(C)C)NC(=O)[C@H](CCCNC(=N)N)NC(=O)[C@H](CCC(N)=O)NC(=O)[C@@H](NC(=O)[C@H](C)NC(=O)[C@@H]1CSSC[C@H](NC(=O)[C@@H](N)CCCCNC(=O)CC[C@H](NC(=O)CCCCCCCCCCCCCCCCCCC(=O)O)C(=O)O)C(=O)N[C@@H](CC(N)=O)C(=O)N[C@@H]([C@@H](C)O)C(=O)N[C@@H](C)C(=O)N[C@@H]([C@@H](C)O)C(=O)N1)[C@@H](C)O)C(=O)N1CCC[C@H]1C(=O)N[C@@H](CO)C(=O)N[C@@H](CO)C(=O)N[C@H](C(=O)N[C@@H](CC(N)=O)C(=O)N[C@H](C(=O)NCC(=O)N1CCC[C@H]1C(=O)N[C@@H](CC(N)=O)C(=O)N[C@H](C(=O)N1CCC[C@H]1C(N)=O)[C@@H](C)O)C(C)C)[C@@H](C)O
B4: N^ε1-[(4S)-4-carboxy-4-[[(4S)-4-carboxy-4-(19-carboxynonadecanoylamino)butanoyl]amino]butanoyl]-[Glu14,Arg17,Pro21,Pro27,Arg34,Glu35]-h-amylin (peptide)
peptide: K([γGlu-γGlu-C20 diacid])CNTATCATQRLAEFLRHSSPNFGAIPSSTNVGRETY-NH2
modifications: disulfide 2-7; N-terminus assumed
SMILES: CC[C@H](C)[C@H](NC(=O)[C@H](C)NC(=O)CNC(=O)[C@H](Cc1ccccc1)NC(=O)[C@H](CC(N)=O)NC(=O)[C@@H]1CCCN1C(=O)[C@H](CO)NC(=O)[C@H](CO)NC(=O)[C@H](Cc1c[nH]cn1)NC(=O)[C@H](CCCNC(=N)N)NC(=O)[C@H](CC(C)C)NC(=O)[C@H](Cc1ccccc1)NC(=O)[C@H](CCC(=O)O)NC(=O)[C@H](C)NC(=O)[C@H](CC(C)C)NC(=O)[C@H](CCCNC(=N)N)NC(=O)[C@H](CCC(N)=O)NC(=O)[C@@H](NC(=O)[C@H](C)NC(=O)[C@@H]1CSSC[C@H](NC(=O)[C@@H](N)CCCCNC(=O)CC[C@H](NC(=O)CC[C@H](NC(=O)CCCCCCCCCCCCCCCCCCC(=O)O)C(=O)O)C(=O)O)C(=O)N[C@@H](CC(N)=O)C(=O)N[C@@H]([C@@H](C)O)C(=O)N[C@@H](C)C(=O)N[C@@H]([C@@H](C)O)C(=O)N1)[C@@H](C)O)C(=O)N1CCC[C@H]1C(=O)N[C@@H](CO)C(=O)N[C@@H](CO)C(=O)N[C@H](C(=O)N[C@@H](CC(N)=O)C(=O)N[C@H](C(=O)NCC(=O)N[C@@H](CCCNC(=N)N)C(=O)N[C@@H](CCC(=O)O)C(=O)N[C@H](C(=O)N[C@@H](Cc1ccc(O)cc1)C(N)=O)[C@@H](C)O)C(C)C)[C@@H](C)O
B5: N^ε1-[(4S)-4-carboxy-4-(19-carboxynonadecanoylamino)butanoyl]-[His14,Arg17,Pro21,Pro27,Pro31,Pro34]-h-amylin (peptide)
peptide: K([γGlu-C20 diacid])CNTATCATQRLAHFLRHSSPNFGAIPSSTPVGPNTY-NH2
modifications: disulfide 2-7; N-terminus assumed
SMILES: CC[C@H](C)[C@H](NC(=O)[C@H](C)NC(=O)CNC(=O)[C@H](Cc1ccccc1)NC(=O)[C@H](CC(N)=O)NC(=O)[C@@H]1CCCN1C(=O)[C@H](CO)NC(=O)[C@H](CO)NC(=O)[C@H](Cc1c[nH]cn1)NC(=O)[C@H](CCCNC(=N)N)NC(=O)[C@H](CC(C)C)NC(=O)[C@H](Cc1ccccc1)NC(=O)[C@H](Cc1c[nH]cn1)NC(=O)[C@H](C)NC(=O)[C@H](CC(C)C)NC(=O)[C@H](CCCNC(=N)N)NC(=O)[C@H](CCC(N)=O)NC(=O)[C@@H](NC(=O)[C@H](C)NC(=O)[C@@H]1CSSC[C@H](NC(=O)[C@@H](N)CCCCNC(=O)CC[C@H](NC(=O)CCCCCCCCCCCCCCCCCCC(=O)O)C(=O)O)C(=O)N[C@@H](CC(N)=O)C(=O)N[C@@H]([C@@H](C)O)C(=O)N[C@@H](C)C(=O)N[C@@H]([C@@H](C)O)C(=O)N1)[C@@H](C)O)C(=O)N1CCC[C@H]1C(=O)N[C@@H](CO)C(=O)N[C@@H](CO)C(=O)N[C@H](C(=O)N1CCC[C@H]1C(=O)N[C@H](C(=O)NCC(=O)N1CCC[C@H]1C(=O)N[C@@H](CC(N)=O)C(=O)N[C@H](C(=O)N[C@@H](Cc1ccc(O)cc1)C(N)=O)[C@@H](C)O)C(C)C)[C@@H](C)O

Numbered stars: 1 amine (or outer) side, 2 acyl side, 3 side chain; on linkers, the order of the positions; unused ones are H or OH. Bridge positions count the residues as written; N and C are the ends. Side chains are listed from the residue outwards. Ends that are not written are not given here. * marks the point of attachment. C20 diacid = O=C(O)CCCCCCCCCCCCCCCCCCC(=O)*; γGlu = O=C(O)[C@H](CCC(=O)[*:2])N[*:1]

One assay addresses T1, human calcitonin receptor. Kind of assay: ratio of IC50 at hCTR over IC50 at hAmylin-R (SPA competition assays). The method in brief:
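Membranes (35 ng/μL final) + SPA beads, 50 mM Hepes pH 7.4 buffer with 1 mM CaCl2, 5 mM MgCl₂, 0.1% OA, 0.02% Tween20; 120 min, 25° C, shaking; centrifuged, counted; IC₅₀ by one-site binding competition.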
Turning to B1, the “Ratio hCT/hAmylin binding” value was found to be 0.5.
With K([γGlu-γGlu-C20 diacid])CNTATCATQRLADFLRHSSPNFGAIPSSTNVGPRTY-NH2 (disulfide 2-7, also called compound 130), the “Ratio hCT/hAmylin binding” value was determined as 280.
Regarding B2, the “Ratio hCT/hAmylin binding” value turned out to be 48.6.
Same read-out and setting: next, B3: 1.2; K([γGlu-γGlu-C20 diacid])CNTATCATQRLADFLRHSSPNFGAIPSSTNVGPETY-NH2 (disulfide 2-7): 49.8.
Consider B4, for which the “Ratio hCT/hAmylin binding” value amounted to 14.7.
For the molecule B5, the “Ratio hCT/hAmylin binding” value was found to be 24.8.

In the next assay the target is T1, human calcitonin receptor. Kind of assay: SPA competition against 125I-calcitonin, membranes of BHK cells with human calcitonin receptor (Assay VII). The method in brief: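 BHK hCTR membranes 35 ng/μL + SPA beads 0.05 mg/well; buffer 50 mM Hepes pH 7.4, 1 mM CaCl2, 5 mM MgCl₂, 0.1% OA, 0.02% Tween20. 120 min, 25° C., shaking. Scintillation count; IC50 by one-site binding competition.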
Turning to B1, the concentration for half-maximal inhibition (IC50) came to 0.117 nM.
Take K([γGlu-γGlu-C20 diacid])CNTATCATQRLADFLRHSSPNFGAIPSSTNVGPRTY-NH2 (disulfide 2-7, also called compound 130): the IC50 is 127 nM.
With B2, the concentration for half-maximal inhibition (IC50) came out at 42.8 nM.
Still for that read-out and setting: next, B3: 0.157 nM.
For K([γGlu-γGlu-C20 diacid])CNTATCATQRLADFLRHSSPNFGAIPSSTNVGPETY-NH2 (disulfide 2-7), the IC50 was found to be 8.56 nM.
In the case of B4, the 50% inhibitory concentration (IC50) was 14.1 nM.
In the case of B5, the IC50 came to 2.04 nM.

One may read the IC50 as the concentration at which inhibition is half-maximal.
